T1: AfFur E104K (Acidithiobacillus ferrooxidans ATCC …, UniProt B7J425 1-158, E104K)
T1 sequence: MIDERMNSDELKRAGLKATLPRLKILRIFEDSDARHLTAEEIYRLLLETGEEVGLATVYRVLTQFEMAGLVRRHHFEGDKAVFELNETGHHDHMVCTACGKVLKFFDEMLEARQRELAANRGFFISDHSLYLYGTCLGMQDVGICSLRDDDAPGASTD

T2: AfFur H91D (Acidithiobacillus ferrooxidans ATCC …, UniProt B7J425 1-158, H91D)
T2 sequence: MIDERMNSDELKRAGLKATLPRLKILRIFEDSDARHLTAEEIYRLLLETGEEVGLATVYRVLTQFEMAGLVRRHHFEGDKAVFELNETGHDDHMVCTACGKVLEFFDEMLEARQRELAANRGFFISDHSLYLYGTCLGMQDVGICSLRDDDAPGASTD

T3: AfFur H91K (Acidithiobacillus ferrooxidans ATCC …, UniProt B7J425 1-158, H91K)
T3 sequence: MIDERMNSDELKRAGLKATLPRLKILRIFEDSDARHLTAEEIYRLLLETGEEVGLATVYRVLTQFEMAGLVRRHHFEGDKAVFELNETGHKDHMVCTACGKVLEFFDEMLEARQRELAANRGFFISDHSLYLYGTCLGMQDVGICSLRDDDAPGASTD

T4: AfFur E84A (Acidithiobacillus ferrooxidans ATCC …, UniProt B7J425 1-158, E84A)
T4 sequence: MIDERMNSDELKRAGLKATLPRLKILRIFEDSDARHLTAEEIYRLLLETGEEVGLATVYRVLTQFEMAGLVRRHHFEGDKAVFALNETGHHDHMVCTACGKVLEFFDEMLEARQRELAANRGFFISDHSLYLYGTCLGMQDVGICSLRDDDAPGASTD

T5: AfFur C136A (Acidithiobacillus ferrooxidans ATCC …, UniProt B7J425 1-158, C136A)
T5 sequence: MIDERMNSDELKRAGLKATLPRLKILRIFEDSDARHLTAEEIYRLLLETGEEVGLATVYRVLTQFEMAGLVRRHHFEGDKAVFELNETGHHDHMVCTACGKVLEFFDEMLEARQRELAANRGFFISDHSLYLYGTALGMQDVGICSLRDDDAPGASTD

T6: AfFur C145A (Acidithiobacillus ferrooxidans ATCC …, UniProt B7J425 1-158, C145A)
T6 sequence: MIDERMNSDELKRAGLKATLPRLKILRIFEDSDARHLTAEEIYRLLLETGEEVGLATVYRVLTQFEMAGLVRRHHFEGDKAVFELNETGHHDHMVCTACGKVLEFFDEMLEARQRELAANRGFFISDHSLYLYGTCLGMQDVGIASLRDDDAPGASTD

T7: AfFur C99A (Acidithiobacillus ferrooxidans ATCC …, UniProt B7J425 1-158, C99A)
T7 sequence: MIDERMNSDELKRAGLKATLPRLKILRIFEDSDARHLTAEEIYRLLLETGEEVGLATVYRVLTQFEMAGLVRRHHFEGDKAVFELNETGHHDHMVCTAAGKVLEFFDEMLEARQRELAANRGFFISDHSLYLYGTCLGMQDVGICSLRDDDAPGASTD

T8: AfFur C145W (Acidithiobacillus ferrooxidans ATCC …, UniProt B7J425 1-158, C145W)
T8 sequence: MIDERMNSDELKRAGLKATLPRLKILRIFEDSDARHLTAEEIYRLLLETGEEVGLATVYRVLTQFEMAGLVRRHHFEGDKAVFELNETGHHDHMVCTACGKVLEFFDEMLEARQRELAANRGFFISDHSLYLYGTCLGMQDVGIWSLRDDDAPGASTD

T9: AfFur C96A (Acidithiobacillus ferrooxidans ATCC …, UniProt B7J425 1-158, C96A)
T9 sequence: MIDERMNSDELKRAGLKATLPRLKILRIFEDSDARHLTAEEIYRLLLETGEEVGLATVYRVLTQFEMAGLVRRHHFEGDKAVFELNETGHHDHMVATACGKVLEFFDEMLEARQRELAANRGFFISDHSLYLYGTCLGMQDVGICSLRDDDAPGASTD

T10: AfFur H93A (Acidithiobacillus ferrooxidans ATCC …, UniProt B7J425 1-158, H93A)
T10 sequence: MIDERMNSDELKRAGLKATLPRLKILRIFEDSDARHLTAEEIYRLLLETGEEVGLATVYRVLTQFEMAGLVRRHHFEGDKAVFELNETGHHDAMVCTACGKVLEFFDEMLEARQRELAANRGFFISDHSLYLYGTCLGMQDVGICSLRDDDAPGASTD

T11: AfFur WT (Acidithiobacillus ferrooxidans ATCC …, UniProt B7J425 1-158)
T11 sequence: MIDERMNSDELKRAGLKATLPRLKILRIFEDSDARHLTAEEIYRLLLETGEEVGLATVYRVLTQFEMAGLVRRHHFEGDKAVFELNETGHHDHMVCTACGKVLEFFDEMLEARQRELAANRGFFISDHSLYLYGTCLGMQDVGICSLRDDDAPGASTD


What was measured:
[1] = molecular target: Ferric Uptake Regulator from Acidithiobacillus ferrooxidans (AfFur), wild type, N-terminal His-tag (Acidithiobacillus ferrooxidans ATCC 23270); experiment: SDS-PAGE and western blot; purified His-tagged AfFur on SDS-PAGE (Coomassie, Figure S2) and western blot with anti-6x His tag antibody (Figure S3); dimer
[2] = molecular target: Ferric Uptake Regulator from Acidithiobacillus ferrooxidans (AfFur), wild type, N-terminal His-tag (Acidithiobacillus ferrooxidans ATCC 23270); experiment: SEC; size-exclusion chromatography of AfFur, data not shown; dimer in solution
AfFur E104K = molecular target: T1, AfFur E104K; experiment: EMSA; 0.1 mM Mn2+, 5 mM Mg2+; lost with cold probe; 10 mM Tris pH 7.5, 50 mM KCl, 5 mM MgCl2, 0.1 mM MnCl2, 1 mM DTT, 2.5% glycerol, 50 ng/uL poly(dI-dC), 0.05% NP-40; 20 fmol probe, 2.9-3.9 ug protein in 20 uL; settings: protein: recombinant; tags: N-terminal His6 (pLATE51); chain copies: 2; label: 5' biotin
AfFur H91D = molecular target: T2, AfFur H91D; experiment: as above; settings: protein: recombinant; tags: N-terminal His6 (pLATE51); chain copies: 2; label: 5' biotin
AfFur H91K = molecular target: T3, AfFur H91K; experiment: EMSA; 0.1 mM Mn2+, 5 mM Mg2+; shift persists with cold probe; 10 mM Tris pH 7.5, 50 mM KCl, 5 mM MgCl2, 0.1 mM MnCl2, 1 mM DTT, 2.5% glycerol, 50 ng/uL poly(dI-dC), 0.05% NP-40; 20 fmol probe, 2.9-3.9 ug protein in 20 uL; settings: protein: recombinant; tags: N-terminal His6 (pLATE51); chain copies: 2; label: 5' biotin
AfFur E84A = molecular target: T4, AfFur E84A; experiment: as above; settings: protein: recombinant; tags: N-terminal His6 (pLATE51); chain copies: 2; label: 5' biotin
AfFur C136A = molecular target: T5, AfFur C136A; experiment: EMSA; 0.1 mM Mn2+, 5 mM Mg2+; also no shift + EDTA; 10 mM Tris pH 7.5, 50 mM KCl, 5 mM MgCl2, 0.1 mM MnCl2, 1 mM DTT, 2.5% glycerol, 50 ng/uL poly(dI-dC), 0.05% NP-40; 20 fmol probe, 2.9-3.9 ug protein in 20 uL; settings: protein: recombinant; tags: N-terminal His6 (pLATE51); chain copies: 2; label: 5' biotin
AfFur C145A = molecular target: T6, AfFur C145A; experiment: as above; settings: protein: recombinant; tags: N-terminal His6 (pLATE51); chain copies: 2; label: 5' biotin
AfFur C99A = molecular target: T7, AfFur C99A; experiment: as above; settings: protein: recombinant; tags: N-terminal His6 (pLATE51); chain copies: 2; label: 5' biotin
AfFur C145W = molecular target: T8, AfFur C145W; experiment: as above; settings: protein: recombinant; tags: N-terminal His6 (pLATE51); chain copies: 2; label: 5' biotin
AfFur C96A = molecular target: T9, AfFur C96A; experiment: as above; settings: protein: recombinant; tags: N-terminal His6 (pLATE51); chain copies: 2; label: 5' biotin
AfFur H93A = molecular target: T10, AfFur H93A; experiment: EMSA; 0.1 mM Mn2+, 5 mM Mg2+; 10 mM Tris pH 7.5, 50 mM KCl, 5 mM MgCl2, 0.1 mM MnCl2, 1 mM DTT, 2.5% glycerol, 50 ng/uL poly(dI-dC), 0.05% NP-40; 20 fmol probe, 2.9-3.9 ug protein in 20 uL; settings: protein: recombinant; tags: N-terminal His6 (pLATE51); chain copies: 2; label: 5' biotin
AfFur WT = molecular target: T11, AfFur WT; experiment: EMSA; holo, 0.1 mM Mn2+, 5 mM Mg2+; shift lost with 200-fold cold probe; 10 mM Tris pH 7.5, 50 mM KCl, 5 mM MgCl2, 0.1 mM MnCl2, 1 mM DTT, 2.5% glycerol, 50 ng/uL poly(dI-dC), 0.05% NP-40; 20 fmol probe, 2.9-3.9 ug protein in 20 uL; settings: protein: recombinant; tags: N-terminal His6 (pLATE51); chain copies: 2; label: 5' biotin

Row | stoichiometry N [1] | stoichiometry N [2] | Molecule | binding result (AfFur E104K) | binding result (AfFur H91D) | binding result (AfFur H91K) | binding result (AfFur E84A) | binding result (AfFur C136A) | binding result (AfFur C145A) | binding result (AfFur C99A) | binding result (AfFur C145W) | binding result (AfFur C96A) | binding result (AfFur H93A) | binding result (AfFur WT)
1 | 2 | 2 | Ferric Uptake Regulator from Acidithiobacillus ferrooxidans (AfFur), wild type, N-terminal His-tag (natural protein) | – | – | – | – | – | – | – | – | – | – | –
2 | – | – | Bio-MntH-Fur-box (dsDNA) DNA 1: GGCATCAATAAACGGGAATCATTCTCGTCTACC DNA 2: GGTAGACGAGAATGATTCCCGTTTATTGATGCC | binds | binds | binds | binds | no binding | no binding | no binding | no binding | no binding | no binding | binds

Source: paper PMC11910503, “Novel metal sites revealed by spectroscopic and structural characterization of the ferric uptake regulator from Acidithiobacillus ferrooxidans”
